Target: nucleolin (on the surface of live Huh7 cells) (UniProt P19338)
Assay: flow cytometry on live Huh7 cells
Conditions: 5 mM MgCl2, whole-cell apparent Kd, Dulbecco's PBS, 4.5 g/L glucose, 5 mM MgCl2, 0.1 mg/mL yeast tRNA, 1 mg/mL BSA, on ice 30 min, 2x10^5 cells in 200 uL, pH not stated

Sequence of UniProt P19338 (P19338 whole entry): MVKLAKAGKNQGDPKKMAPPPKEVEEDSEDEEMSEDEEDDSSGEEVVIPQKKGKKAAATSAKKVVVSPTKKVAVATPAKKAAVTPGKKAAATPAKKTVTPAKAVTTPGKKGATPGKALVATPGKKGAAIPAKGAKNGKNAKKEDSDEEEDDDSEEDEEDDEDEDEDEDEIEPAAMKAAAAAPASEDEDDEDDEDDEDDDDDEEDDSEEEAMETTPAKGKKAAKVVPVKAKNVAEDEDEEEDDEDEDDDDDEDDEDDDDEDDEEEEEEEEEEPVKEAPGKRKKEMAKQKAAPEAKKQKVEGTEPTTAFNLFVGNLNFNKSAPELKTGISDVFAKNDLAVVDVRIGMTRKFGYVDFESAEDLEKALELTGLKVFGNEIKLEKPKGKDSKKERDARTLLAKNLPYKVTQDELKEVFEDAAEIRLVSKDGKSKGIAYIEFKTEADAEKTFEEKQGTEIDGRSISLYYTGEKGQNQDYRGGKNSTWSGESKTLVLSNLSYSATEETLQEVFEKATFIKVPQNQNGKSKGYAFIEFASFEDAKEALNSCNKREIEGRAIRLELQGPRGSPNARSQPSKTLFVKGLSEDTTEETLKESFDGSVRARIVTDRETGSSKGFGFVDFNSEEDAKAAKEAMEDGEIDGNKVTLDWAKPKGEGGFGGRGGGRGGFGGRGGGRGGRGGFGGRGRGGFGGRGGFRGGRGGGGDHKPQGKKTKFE

Sequence | Kd [nM] | Kd (doxorubicin adducts via formaldehyde methylene links to guanine N2, 5.4 +/- 0.1 Dox per strand) [nM]
GGTGGTGGTGGTTGTGGTGGTGGTGG [AS1411 (AGRO100)] | 54.8 | 
GGTGGTGGTGGTTGTGGTGGTGGTGG [AS1411-Dox adduct] |  | 57.3

Reference: article PMC4629891
